In test [1] the target is T1, GST-human NOGO-A56 (human).
T1 construct: Expressed in E. coli BL21 from pGEX-6P1 and purified on glutathione-sepharose; the GST tag is part of the protein in the assays; also called GST-Nogo-A 5+6; GST Nogo-A 5 + 6
Briefly: SPR (Biacore), GST-human NOGO-A56 amine-coupled to CM5, antibody flowed over, 25 C. For orientation: Surface plasmon resonance follows binding to a sensor surface in real time, without labels.

In test [2] the target is T1, GST-human NOGO-A56. Briefly: reverse format ELISA: antibody captured on anti-human IgG, GST-Nogo-A 5+6 detected with anti-GST-HRP; the x axis is the antibody concentration. For orientation: ELISA stands for enzyme-linked immunosorbent assay.
Test [3] deals with T1, GST-human NOGO-A56. Briefly: SPR (Biacore), GST-human NOGO-A56 amine-coupled to CM5, antibody flowed over, 25 C. This is another data set of the same source.
In test [4] the target is T1, GST-human NOGO-A56. Briefly: direct ELISA, GST-human NOGO-A56 coated at 1.0 mcg/ml, purified antibody, OD490.
Experimental: (§1) Wells were rinsed once with TBS+0.05% Tween (TBST) then incubated with 2% BSA in TBST to block non-specific binding sites at room temperature for 1 hour. Antibodies were diluted in TBST+2% BSA to 10 μg/ml and ½ dilutions made from this. Antibodies were added to wells in duplicate and incubated at room temperature for 1 hour. […] The wells were washed three times with TBST and then incubated with 100 μl OPD peroxidase substrate (Sigma) per well for 10 minutes. The colour reaction was stopped by the addition of 25 μl concentrated H₂SO₄. Optical density at 490 nm was measured using a plate reader. Background values read from wells with no antibody were subtracted.
Test [5] addresses T1, GST-human NOGO-A56. Briefly: SPR (Biacore), GST-human NOGO-A56 amine-coupled to CM5, antibody flowed over, 25 C. This is another data set of the same source.
Experimental: (§2) GST-human NOGO-A56 was immobilised to a CM5 chip by primary amine coupling using the Biacore Wizard program designed for targeted immobilisation levels. The CM5 sensor surface was activated by passing a solution of 50 mM N-hydroxy-succinimide (NHS) and 200 mM N-ethyl-N′-dimethylaminopropyl carbonide (EDC). Then GST-human NOGO-A56 in sodium acetate buffer, pH5.0 or pH 4.5, was passed over the chip and immobilised. After immobilisation was complete any still activated esters were blocked by an injection of 1M ethanolamine hydrochloride, pH8.5.
(§3) The anti-NOGO mAbs were diluted down in HBS-EP (10 mM HEPES, pH 7.4, 150 mM NaCl, 3 mM EDTA, and 0.005% P-20 surfactant) for the BIAcore 3000 or HBS-EP+ (10 mM HEPES, pH 7.4, 150 mM NaCl, 3 mM EDTA, and 0.05% P-20 surfactant) in the case of the T100 and binding studies were carried out at range of defined antibody concentrations. All runs were referenced against a blanked sensor surface (one that had been activated and blocked as described earlier but had no addition of ligand). Analysis of binding was carried out using the BIAevaluation kinetic analysis software version 4.1 for the BIAcore 3000 and T100 kinetic analysis software version 1.0. […] Unless otherwise stated, the BIAcore experiments were performed at 25° C.
Test [6] deals with T1, GST-human NOGO-A56. Briefly: direct ELISA, GST-human NOGO-A56 coated at 1.0 mcg/ml, purified antibody, OD490. The source holds these as a separate data set.
Experimental: as §1
Test [7] addresses T1, GST-human NOGO-A56. Briefly: competition ELISA on coated GST-Nogo-A 5+6; competitor 2A10 pre-mixed, bound 2A10 detected with anti-mouse IgG-HRP.
In test [8] the target is T1, GST-human NOGO-A56. Briefly: direct ELISA, GST-Nogo-A 5+6 coated at 1.0 mcg/ml, anti-human IgG-HRP, Abs490.
Experimental: as §1
The target in test [9] is T1, GST-human NOGO-A56. Briefly: SPR (Biacore T100), antigen amine-coupled to CM5, antibody 0.125-8 nM; mean of six runs in duplicate (SD in brackets).
Text: In the first approach, the recombinant Nogo-A was coupled to the surface of the chip and anti-Nogo-A antibodies passed over this surface. In the second approach, Protein A was used to capture the antibody onto the surface of the chip over which the recombinant GST-human Nogo-A56 was passed.
The antigen was bound to the CM5 chip by primary amine coupling. […] The values show the mean and standard deviation (in brackets) of six independent runs carried out in duplicate. Each completed data set was analysed independently prior to the calculation of mean and standard deviation.
For test [10], the target named is T1, GST-human NOGO-A56. Briefly: SPR (Biacore), GST-human NOGO-A56 amine-coupled to CM5, antibody flowed over, 37 C.
Experimental: as §2, §3
Test [11] deals with T1, GST-human NOGO-A56. Briefly: SPR (Biacore T100), reverse format: antibody captured by Protein A, GST Nogo-A 5+6 0.125-8 nM flowed over; mean (SD in brackets).
Text: Protein A was immobilised to approximately 4000RUs by primary amine and used to capture 200-300RUs of the sample antibodies. […] The values show the mean and standard deviation (in brackets) of three independent runs in duplicate. Each data set was independently analysed prior to the calculation of the mean and standard deviation.

T1 sequence (chain, as listed by the source limits assumed): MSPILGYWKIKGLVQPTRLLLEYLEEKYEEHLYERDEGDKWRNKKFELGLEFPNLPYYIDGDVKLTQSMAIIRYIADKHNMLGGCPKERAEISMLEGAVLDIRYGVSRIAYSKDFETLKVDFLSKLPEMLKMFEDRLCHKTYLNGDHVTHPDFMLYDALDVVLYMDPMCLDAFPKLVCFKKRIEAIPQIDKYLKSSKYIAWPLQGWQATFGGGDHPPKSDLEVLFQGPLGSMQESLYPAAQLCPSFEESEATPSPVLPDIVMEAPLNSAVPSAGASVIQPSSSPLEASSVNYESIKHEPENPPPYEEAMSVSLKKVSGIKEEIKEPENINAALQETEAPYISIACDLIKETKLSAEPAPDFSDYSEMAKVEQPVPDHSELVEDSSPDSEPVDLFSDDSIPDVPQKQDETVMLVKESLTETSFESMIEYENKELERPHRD

B1: H28L13 (antibody, human IgG1, kappa, V domains shown)
VH: QVQLVQSGAEVKKPGASVKVSCKASGYTFTSYWMHWVRQAPGQGLEWIGNINPSNGGTNYNEKFKSKATMTRDTSTSTAYMELSSLRSEDTAVYYCELMQGYWGQGTLVTVSS
VL: DIVMTQSPLSLPVTLGQPASISCRSSKSLLYKDGKTYLNWFQQRPGQSPQLLIYLMSTRASGVPDRFSGGGSGTDFTLKISRVEAEDVGVYYCQQLVEYPLTFGQGTKLEIKR
notes: IgG1 (L235A, G237A) / kappa; CAMPATH-1H signal (1-19) left out; also called H28FL L13FL
As usually defined, the Kd is the concentration at which binding is half-saturated. As a reminder, the koff is the rate constant with which the complex falls apart. High values mean fast dissociation, low ones slow dissociation. Usually kon stands for the rate constant with which the complex forms. Read a high kon as faster complex formation. The EC50 (read off the curve) is the concentration giving half of the maximal effect. As for B1, the Kd in the test with GST-human NOGO-A56 [1] worked out at 0.936 nM; in the test with GST-human NOGO-A56 [3] it was 0.45 nM; with GST-human NOGO-A56 [5], 0.454 nM; with GST-human NOGO-A56 [9] it was 1.11 nM; in the test with GST-human NOGO-A56 [10], 1.02 nM; in the test with GST-human NOGO-A56 [11], 0.34 nM. Besides, the off-rate constant (koff) with GST-human NOGO-A56 [1] was 0.00389 s⁻¹; in the test with GST-human NOGO-A56 [3], 0.00317 s⁻¹; in the test with GST-human NOGO-A56 [5] it was 0.0033 s⁻¹; with GST-human NOGO-A56 [10] it was 0.00759 s⁻¹. For the same molecule, the on-rate (kon) with GST-human NOGO-A56 [1] was determined as 4.16e+06 M⁻¹ s⁻¹; with GST-human NOGO-A56 [3], 6.97e+06 M⁻¹ s⁻¹; with GST-human NOGO-A56 [5], 7.26e+06 M⁻¹ s⁻¹; with GST-human NOGO-A56 [10], 7.43e+06 M⁻¹ s⁻¹. For the same molecule, the “EC50 (read off the curve)” value in the test with GST-human NOGO-A56 [2] is about 0.06 µg/mL; with GST-human NOGO-A56 [4], about 0.08 µg/mL; with GST-human NOGO-A56 [6], about 0.07 µg/mL; in the test with GST-human NOGO-A56 [8], about 0.03 µg/mL. Also, in the test with GST-human NOGO-A56 [7], the “IC50 (read off the curve)” value is about 5 µg/mL.

The values above are taken from patent US20130287781A1 (GlaxoSmithKline, published 2013).
